# Assays:
# [1] = system: GB-LFRAL-SA-GFP; experiment: Digestion of GB-LFRAL-SA-GFP fusion protein in E. coli extract (protein gel, MALDI-MS); format: biochemical; settings: 20 μM fusion protein, 50 nM SBT189, 10 mM azide, 0.1M KPi, pH 7.2, 22° C.
# Experimental: In order to evaluate sequence specificity of SBT189 for the cognate sequence identified by phage display, a gene was constructed to direct the synthesis of a fusion of the 56 amino acid B domain (GB) of streptococcal Protein G to a linker comprising the cognate sequence LFRAL-SA (SEQ ID NO:5) followed by GFP. Accordingly, the protein is denoted “GB-LFRAL-SA-GFP”.
# Timepoints were collected as indicated. The fusion protein (20 μM) was mixed with 50 nM of SBT189 in 10 mM azide, 0.1M KPi, pH 7.2, at 22° C.
# [2] = system: Dabcyl-EEDKLFRAL-SATE(EDANS)G; experiment: Transient state kinetics with self-quenched FRET peptide: deacylation; format: biochemical; settings: SBT189 in 50 mM azide
# Experimental: The deacylation reaction and product release: A self-quenched FRET peptide that becomes highly fluorescent when cleaved (Dabcyl-EEDKLFRAL-SATE(EDANS)G (SEQ ID NO:16)) was synthesized. This peptide has been used to determine transient state kinetic parameters. Deacylation of SBT189 in 50 mM azide is faster (3.3 s^−1) than the wild type counterpart (1.8 s^−1). The rate of product (Dabcyl-EEDKLFRAL; (SEQ ID NO:17)) release is 6 s^−1 and Kp is 1.2 μM. Product binding is not influenced by azide concentration. Strong product binding of subtilisin-phage to GA-PCOGNATE- is used for the collection of active mutants in the release step in phage selection (see FIG. 5). Binding is constitutive at this step, however, and is not used to increase selectivity.
# [3] = system: GA-PFRAL-S-GB; experiment: Cleavage kinetics of GA-PFRAL-S-GB by position 166 mutant versus parent enzyme; format: biochemical; settings: no azide
# Experimental: Mutants were selected that cleave the substrate GA-PFRAL-S-GB in response to azide. Phage were bound to the GA-PFRAL-S-GB substrate and collected on IgG-Sepharose. The ability to hydrolyze the fusion protein is selected by washing the beads in 1 mM azide for 5 minutes in the release step. Phage are therefore released or retained from the resin based on the kinetics with which they cleave GA-PFRAL from GB under the triggering condition. Released phage were collected on HSA-Sepharose, acid eluted, neutralized, used to infect fresh E. coli cells, plated out, and colonies counted. Three cycles of selection were carried out. After three rounds of selection, the consensus amino acid at position 166 was threonine. The kinetic properties of the T166 mutant were compared to parent enzyme (SBT189), which has a serine at 166. The T166 mutant hydrolyzed GA-PFRAL-S-GB 1.5-times faster than SBT 189 in 1 mM azide. […] Thus the ratio of triggered rate to intrinsic rate was increased 5-fold by optimizing a single amino acid position in the S1 subsite. This ratio is a quantitative measure of how tightly the enzyme is regulated by the trigger.
# [4] = system: GA-PLFRAL-S-GB; experiment: Acylation kinetics (GB release) of pre-formed enzyme-substrate complex monitored by fluorescence; format: biochemical
# Description: In panels A-C, RSUB1(AF350) represents subtilisin SBT189 conjugated to AF350).
# The acylation reaction: Step 2 describes conversion of the ternary complex into an acyl-enzyme with the concomitant release to the C-terminal portion of the substrate. With substrates used in phage display, the GB domain is released concomitantly with the acylation step. If a fluorescent reporter group is attached to subtilisin, a decrease in energy transfer enables time-dependent quantitation of acylation.
# [5] = molecular target: subtilisin; settings: competitive inhibitor of active subtilisin; cited from earlier work
Molecule,processing of the fusion protein [1],deacylation rate [2],cleavage rate in the absence of azide [3],"rate of GB release ([4]; 0.1M KPO4, pH 7.2, no azide, 22° C.)",rate of GB release ([4]; saturating azide),azide dependent rate enhancement ([4]; saturating azide versus no azide),Ki [5]
"SBT189: D32A mutant of subtilisin, azide-triggered protease (SEQ ID NO: 27) (protein, Subtilisin related sequence) AKCVSYGVAQIKAPALHSQGYTGSNVKVAVLASGIDSSHPDLNVAGGASFVPSETNPFQDNNSHGTHVAGTVLAVAPSASLYAVKVLGADGSGQASWIINGIEWAIANNMDVINMSLGSPSGSAALKAAVDKAVASGVVVVAAAGNSGTSGSSSTVSYPAKYPSVIAVGAVDSSNQRAPFSSVGPELDVMAPGVSICSTLPGGKYGALSGTSMASPHVAGAAALILSKHPNWTNTQVRSSLENTATKLGDSFYYGKGLINVEAAAQ",correctly and specifically processed,3.3 s⁻¹,0.12 min⁻¹,0.0019 s⁻¹,6.4 s⁻¹,about 3300 fold,
"77 amino acid prodomain: 77 amino acid subtilisin prodomain (SEQ ID NO: 25) (protein, listed as Bacillus amyloliquefaciens) AGKSNGEKKYIVGFKQTMSTMSAAKKKDVISEKGGKVQKQFKYVDAASATLNEKAVKELKKDPSVAYVEEDHVAHAY",,,,,,,540 nM

# From US20160053248A1, “SYSTEMS AND METHODS FOR EVOLVING ENZYMES WITH DESIRED ACTIVITIES” (Potomac Affinity Proteins, LLC, priority 2009, published 2016)
